T1: human histidine-rich glycoprotein (HRG), purified from human plasma (human, UniProt P04196 19-525)
T1 construct: also called human purified HRG; human purified HRG protein
T1 sequence: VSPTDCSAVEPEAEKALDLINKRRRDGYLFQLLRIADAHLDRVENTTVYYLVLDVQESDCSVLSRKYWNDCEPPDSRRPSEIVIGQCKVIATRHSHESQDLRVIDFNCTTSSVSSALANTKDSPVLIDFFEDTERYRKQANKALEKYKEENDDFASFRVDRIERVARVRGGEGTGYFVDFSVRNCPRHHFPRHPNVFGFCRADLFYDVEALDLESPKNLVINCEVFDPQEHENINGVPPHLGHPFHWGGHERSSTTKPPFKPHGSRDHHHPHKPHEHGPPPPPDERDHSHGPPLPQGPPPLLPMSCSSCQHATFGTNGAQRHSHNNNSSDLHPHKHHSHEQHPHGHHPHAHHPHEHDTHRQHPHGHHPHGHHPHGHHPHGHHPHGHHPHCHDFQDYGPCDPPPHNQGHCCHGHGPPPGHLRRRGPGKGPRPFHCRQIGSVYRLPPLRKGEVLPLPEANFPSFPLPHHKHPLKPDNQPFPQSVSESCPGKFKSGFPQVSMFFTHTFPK


Columns and labels:
[1] = target: T1, human histidine-rich glycoprotein …; experiment: sandwich ELISA, HRG captured by solid phase 6-12A-10B-9G
Experimental: (§1) The capture antibody solution was dispensed at 25 μL per well into 384-well Maxisorp plates (NUNC), and the plates were incubated at room temperature for 3 hours. The plates were washed twice with 120 μL of washing solution per well (0.05% Tween 20-containing PBS). A blocking solution (1% BSA-containing PBS) was dispensed at 30 μL per well, and the plates were incubated at room temperature for 3 hours. The blocking solution was removed followed by dispensing the standard substance for evaluation at 20 μL per well (n=2), and the plates were incubated at room temperature for 3 hours. After washing the plates four times with the washing solution as described above, the solution of each detector antibody was dispensed at 10 μL per well, followed by dispensing a horseradish peroxidase-streptavidin solution (0.05 μg/mL) at 10 μL per well, and the plates were incubated at room temperature for 1 hour. After washing the plates four times with the washing solution as described above, a chromogenic substrate solution (TMB (3,3′,5,5′-tetramethylbenzidine)) was dispensed at 20 μL per well followed by incubating the plates at room temperature for 10 minutes, then a reaction stop solution 0.5 M H₂SO₄ was added at 20 μL/well, and the absorbance at 450 nm was measured.
(§2) The results regarding the evaluation of combinations chosen from 21 types of anti-HRG monoclonal antibodies are shown in Table 1. In Table 1, the absorbance at a wavelength of 450 nm of each combination was determined as follows: less than 1.0 OD: −, 1.0 OD or more and less than 2.0 OD: +, 2.0 OD or more and less than 3.0 OD: ++, and 3.0 OD or more: +++. The combinations of antibodies which could construct a sandwich ELISA system having enough level of absorbance change were 86 sets evaluated as ++ or +++ in Table 1.

[2] = target: T1, human histidine-rich glycoprotein …; experiment: sandwich ELISA, HRG captured by solid phase 35-3G-10C
Experimental: as §1, §2

[3] = target: T1, human histidine-rich glycoprotein …; experiment: sandwich ELISA, HRG captured by solid phase 13-2G
Experimental: as §1, §2

[4] = target: T1, human histidine-rich glycoprotein …; experiment: sandwich ELISA, HRG captured by solid phase 19-1C
Experimental: as §1, §2

[5] = target: T1, human histidine-rich glycoprotein …; experiment: sandwich ELISA, HRG captured by solid phase 67-8A-5F
Experimental: as §1, §2

[6] = target: T1, human histidine-rich glycoprotein …; experiment: sandwich ELISA, HRG captured by solid phase 3-4E
Experimental: as §1, §2

[7] = target: T1, human histidine-rich glycoprotein …; experiment: sandwich ELISA, HRG captured by solid phase 69-1A
Experimental: as §1, §2

[8] = target: T1, human histidine-rich glycoprotein …; experiment: sandwich ELISA, HRG captured by solid phase 88-2E
Experimental: as §1, §2

[9] = target: T1, human histidine-rich glycoprotein …; experiment: sandwich ELISA, HRG captured by solid phase 65-3A
Experimental: as §1, §2

[10] = target: T1, human histidine-rich glycoprotein …; experiment: sandwich ELISA, HRG captured by solid phase 94-7A-3C-3D
Experimental: as §1, §2

[11] = target: T1, human histidine-rich glycoprotein …; experiment: sandwich ELISA, HRG captured by solid phase 31-1H
Experimental: as §1, §2

[12] = target: T1, human histidine-rich glycoprotein …; experiment: sandwich ELISA, HRG captured by solid phase 50-6C-2A
Experimental: as §1, §2

[13] = target: T1, human histidine-rich glycoprotein …; experiment: sandwich ELISA, HRG captured by solid phase 32-4C
Experimental: as §1, §2

[14] = target: T1, human histidine-rich glycoprotein …; experiment: sandwich ELISA, HRG captured by solid phase 81-2C
Experimental: as §1, §2

[15] = target: T1, human histidine-rich glycoprotein …; experiment: sandwich ELISA, HRG captured by solid phase 40-10G
Experimental: as §1, §2

[16] = target: T1, human histidine-rich glycoprotein …; experiment: sandwich ELISA, HRG captured by solid phase 9-1F
Experimental: as §1, §2

[17] = target: T1, human histidine-rich glycoprotein …; experiment: sandwich ELISA, HRG captured by solid phase 42-10D
Experimental: as §1, §2

[18] = target: T1, human histidine-rich glycoprotein …; experiment: sandwich ELISA, HRG captured by solid phase 75-2D
Experimental: as §1, §2

[19] = target: T1, human histidine-rich glycoprotein …; experiment: sandwich ELISA, HRG captured by solid phase 93-4C
Experimental: as §1, §2

[20] = target: T1, human histidine-rich glycoprotein …; experiment: sandwich ELISA, HRG captured by solid phase 58-5C
Experimental: as §1, §2

[21] = target: T1, human histidine-rich glycoprotein …; experiment: sandwich ELISA, HRG captured by solid phase 14-6F
Experimental: as §1, §2

| Binder | absorbance at 450 nm [2] | absorbance at 450 nm [4] | absorbance at 450 nm [7] | absorbance at 450 nm [8] | absorbance at 450 nm [11] | absorbance at 450 nm [13] | absorbance at 450 nm [14] | absorbance at 450 nm (OD450) [15] | absorbance at 450 nm [16] | absorbance at 450 nm [17] | absorbance at 450 nm (OD450) [18] | absorbance at 450 nm (OD450) [19] | absorbance at 450 nm (OD450) [20] | absorbance at 450 nm (OD450) [21] | absorbance at 450 nm [1] | absorbance at 450 nm [3] | absorbance at 450 nm [5] | absorbance at 450 nm (OD450) [6] | absorbance at 450 nm (OD450) [9] | absorbance at 450 nm (OD450) [10] | further results |
| --- | --- | --- | --- | --- | --- | --- | --- | --- | --- | --- | --- | --- | --- | --- | --- | --- | --- | --- | --- | --- | --- |
| anti-HRG monoclonal antibody 3-4E (antibody, V domains shown, Mouse (BALB/c) hybridoma monoclonal, Protein A purified; biotin-labeled when used as detection antibody) VH: QVQLQQSGAELMKPGASVKISCKATGYTFSTFWMEWVKQRPGHGLEWIGEILPGSGNANYNEKFKGKATFTADTSSNTAYMQLSSLTSEDSAVYYCAIHYYGYGFAYWGQGTLVTVSA VL: DNVLTQSPAIMSASLGERVTMTCTASSSVSSSYLHWYQQKPGSSPKLWIYTTSNLASGVPVRFSGSGSGTSYSLTISSMEAEDAATYYCHQYHRSPWTFGGGTKLEIK | < 1 OD | < 1 OD | < 1 OD | < 1 OD | < 1 OD | < 1 OD | < 1 OD | – | – | – | – | – | – | – | – | – | – | – | – | – | absorbance at 450 nm (OD450) [1]: ≥ 3 od; absorbance at 450 nm (OD450) [3]: ≥ 3 od; absorbance at 450 nm (OD450) [5]: 2 to 3 od; absorbance at 450 nm [6]: < 1 OD; absorbance at 450 nm [9]: < 1 OD; absorbance at 450 nm [10]: < 1 OD; absorbance at 450 nm (OD450) [12]: ≥ 3 od |
| anti-HRG monoclonal antibody 50-6C-2A (antibody, V domains shown, Mouse hybridoma monoclonal) VH: EVQLQESGPGLVKPSQSLSLTCTVTGYSITSDYAWNWIRQFPGNKLEWMGYISYSGSTNYNPSLKSRISITRDTSKNQFFLQLNSVTTEDTATYYCASASYRYAWFAYWGQGTLVTVST VL: DIQMTQTTSSLSASLGDRVTISCRASQDISNYLNWYQQKPDGTVKLLIYYTSRLHSGVPSRFSGSGSGTDYSLTISNLEQEDIGTYFCQQGNTLPTFGGGTKLEIK | < 1 OD | < 1 OD | < 1 OD | < 1 OD | < 1 OD | < 1 OD | < 1 OD | 1 to 2 od | < 1 OD | < 1 OD | ≥ 3 od | 2 to 3 od | 1 to 2 od | 2 to 3 od | < 1 OD | < 1 OD | < 1 OD | ≥ 3 od | 1 to 2 od | 1 to 2 od | absorbance at 450 nm [12]: < 1 OD |
| anti-HRG monoclonal antibody 6-12A-10B-9G (antibody, V domains shown, Mouse hybridoma monoclonal; biotin-labeled as detection antibody and for bead immobilisation) VH: EVQLQESGPGLVKPSQSLSLTCTVTGYSITSDYAWNWIRQFPGNKLEWMGYISYSGSTNYNPSLRSRISITRDTSKNQFFLQLISVTTEDTATYYCGSASYRYAWFAYWGQGTLVTVSA VL: DIQVTQTTSSLSASLGDRVTISCRASQDISNYLNWYQQKPDGTVKLLIYYTSRLHSGVPSRFSGSGSGTDYSLTISNLEQEDIATYFCQQGNTLPTFGGGTKLEIK | < 1 OD | < 1 OD | < 1 OD | – | < 1 OD | < 1 OD | < 1 OD | 2 to 3 od | < 1 OD | < 1 OD | ≥ 3 od | ≥ 3 od | 2 to 3 od | ≥ 3 od | < 1 OD | < 1 OD | < 1 OD | ≥ 3 od | 2 to 3 od | 1 to 2 od | absorbance at 450 nm [12]: < 1 OD |

Continued, in another order:

| absorbance at 450 nm [2] | absorbance at 450 nm [4] | absorbance at 450 nm [7] | absorbance at 450 nm [8] | absorbance at 450 nm [11] | absorbance at 450 nm [13] | absorbance at 450 nm [14] | absorbance at 450 nm (OD450) [15] | absorbance at 450 nm [16] | absorbance at 450 nm [17] | absorbance at 450 nm (OD450) [18] | absorbance at 450 nm (OD450) [19] | absorbance at 450 nm (OD450) [20] | absorbance at 450 nm (OD450) [21] | absorbance at 450 nm [1] | absorbance at 450 nm [3] | absorbance at 450 nm [5] | absorbance at 450 nm (OD450) [6] | absorbance at 450 nm (OD450) [9] | absorbance at 450 nm (OD450) [10] | Binder | further results |
| --- | --- | --- | --- | --- | --- | --- | --- | --- | --- | --- | --- | --- | --- | --- | --- | --- | --- | --- | --- | --- | --- |
| < 1 OD | < 1 OD | < 1 OD | – | < 1 OD | < 1 OD | < 1 OD | 2 to 3 od | < 1 OD | < 1 OD | 2 to 3 od | 2 to 3 od | 2 to 3 od | 1 to 2 od | – | – | – | – | – | – | anti-HRG monoclonal antibody 65-3A (antibody, V domains shown, Mouse hybridoma monoclonal) VH: QVILKESGPGILQPSQTLSLTCSFSGFSLSTSGVGVSWIRQPSGKGLEWLAHIYWDDDKHYNPSLKSRLTISKDTSRNQVFLRITSVDTADTATYYCALGTVGGPWFPYWGQGTLVTVSA VL: DVQMNQSHKFMSTSVGDRVSITCKASQDVSTAVAWYQQKPGQSPKILIYWASIRHTGVPDRFTGSGSGTDYTLTISSVQAEDLTLYYCQQHYSTPWTFGGGTKLEIK | absorbance at 450 nm (OD450) [1]: ≥ 3 od; absorbance at 450 nm (OD450) [3]: 2 to 3 od; absorbance at 450 nm (OD450) [5]: 2 to 3 od; absorbance at 450 nm [6]: < 1 OD; absorbance at 450 nm [9]: < 1 OD; absorbance at 450 nm [10]: < 1 OD; absorbance at 450 nm (OD450) [12]: 2 to 3 od |
| < 1 OD | < 1 OD | < 1 OD | < 1 OD | < 1 OD | < 1 OD | < 1 OD | 1 to 2 od | < 1 OD | < 1 OD | ≥ 3 od | 2 to 3 od | 2 to 3 od | 2 to 3 od | < 1 OD | < 1 OD | < 1 OD | ≥ 3 od | 1 to 2 od | 1 to 2 od | anti-HRG monoclonal antibody 67-8A-5F (antibody, V domains shown, Mouse hybridoma monoclonal) VH: EVQLQESGPGLVKPSQSLSLTCTVTGYSITSDYAWNWIRQFPGNKLEWMGYISYSGSTSYNPSLKSRISITRDTSKNQFFLQLNSVTTEDTATYYCASASYRYAWFAYWGQGTLVTVSA VL: DIQMTQTTSSLSASLGDRVTISCRASQDISNYLNWYQQKPDGTVKLLIYYTSRLLSGVPSRFSGSGSGTDYSLTISNLEQEDIATYFCQQGNTLPTFGGGTKLEIK | absorbance at 450 nm [12]: < 1 OD |

Reference: patent US20250258178A1 (SHIONOGI, published 2025)
